Drawing on the FLAb antibody collection (doi:10.7554/elife.23156), this text covers Kd and yeast surface expression for six variants.

The labels stand for the following.
B1: scFv; the commonest letter at each place (parent)
chain 1: EVKLDETGGGLVQPGRPMKLSCVASGFTFSDYWMNWVRQSPEKGLEWVAQIRNKPYNYETYYSDSVKGRFTISRDDSKSSVYLQMNNLRVEDMGIYYCTGSYYGMDYWGQGTSVTVS
chain 2: DVVMTQTPLSLPVSLGDQASISCRSSQSLVHSNGNTYLRWYLQKPGQSPKVLIYKVSNRFSGVPDRFSGSGSGTDFTLKISRVEAEDLGVYFCSQSTHVPWTFGGGTKLEIK

In the data set “fluorescein” the parent is B1. The experiment in a line: Kd (Tite-Seq). To be noted: with fluorescein; format: scFv 4-4-20, heavy + light.
Variants of B1 are the subject of data set [1]. The experiment in a line: yeast surface expression (ratio to wild type); higher = more expressed. To be noted: format: scFv 4-4-20, heavy + light.

chain 1 EVKLDETGGGLVQPGRPMKLSCVASGFTFSNYWMNWIRQSPEKGLEWVAQIRNKPYNYETYYSDSVKGRFTISRDDSKSSVYLQMNNLRVEDMGIYYCTGSYYGMDYWGQGTSVTVS chain 2 DVVMTQTPLSLPVSLGDQASISCRSSQSLVHSNGNTYLRWYLQKPGQSPKVLIYKVSNRFSGVPDRFSGSGSGTDFTLKISRVEAEDLGVYFCSQSTHVPWTFGGGTKLEIK [chain 1 D31N V37I]: in the data set with fluorescein, the Kd came to 0.00325 µM. Also, in data set [1], the yeast surface expression was 0.855.

In the case of chain 1 EVKLDETGGGLVQPGRPMKLSCVASGFTFSDWPMNWVRQSPEKGLEWVAQIRNKPYNYETYYSDSVKGRFTISRDDSKSSVYLQMNNLRVEDMGIYYCTGSYYGMDYWGQGTSVTVS chain 2 DVVMTQTPLSLPVSLGDQASISCRSSQSLVHSNGNTYLRWYLQKPGQSPKVLIYKVSNRFSGVPDRFSGSGSGTDFTLKISRVEAEDLGVYFCSQSTHVPWTFGGGTKLEIK [chain 1 Y32W W33P], the Kd with fluorescein was at least 10 µM. In addition, the yeast surface expression in data set [1] worked out at 0.825.

Turning to chain 1 EVKLDETGGGLVQPGRPMKLSCVASGFLFSDYWMNWQRQSPEKGLEWVAQIRNKPYNYETYYSDSVKGRFTISRDDSKSSVYLQMNNLRVEDMGIYYCTGSYYGMDYWGQGTSVTVS chain 2 DVVMTQTPLSLPVSLGDQASISCRSSQSLVHSNGNTYLRWYLQKPGQSPKVLIYKVSNRFSGVPDRFSGSGSGTDFTLKISRVEAEDLGVYFCSQSTHVPWTFGGGTKLEIK [chain 1 T28L V37Q], in the data set with fluorescein, the dissociation constant (Kd) worked out at 0.0102 µM. Also, the yeast surface expression in data set [1] came out at 0.731.

Take chain 1 EVKLDETGGGLVQPGRPMKLSCVASGFTFSDYWMNWVRQSPEKGLEWVAQIRNKPYNYETYYSDSVKGRFTISRDDSKSSVYLQMNNLRVEDMGIYYCTRSYYGMDNWKQGTSVTVS chain 2 DVVMTQTPLSLPVSLGDQASISCRSSQSLVHSNGNTYLRWYLQKPGQSPKVLIYKVSNRFSGVPDRFSGSGSGTDFTLKISRVEAEDLGVYFCSQSTHVPWTFGGGTKLEIK [chain 1 G100R Y107N G109K]: the Kd in the data set with fluorescein was at least 10 µM. For the same variant, the yeast surface expression in data set [1] was determined as 0.235.

chain 1 EVKLDETGGGLVQPGRPMKLSCVASGFTFSDYWMNWVRQSPEKGLEWVAQIRNKPYNYETYYSDSVKGRFTISRDDSKSSVYLQMNNLRVEDMGIYYCTASYYGMDYYGQGTSVTVS chain 2 DVVMTQTPLSLPVSLGDQASISCRSSQSLVHSNGNTYLRWYLQKPGQSPKVLIYKVSNRFSGVPDRFSGSGSGTDFTLKISRVEAEDLGVYFCSQSTHVPWTFGGGTKLEIK [chain 1 G100A W108Y]: the Kd with fluorescein was at most 0.000316 µM. In addition, the yeast surface expression in data set [1] was found to be 0.892.

Consider chain 1 EVKLDETGGGLVQPGRPMKLSCVASGFTFSDYWMNWVRQSPEKGLEWVAQIRNKPYNYETYYSDSVKGRFTISRDDSKSSVYLQMNNLRVEDMGIYYCTGSKYGMDRWGQGTSVTVS chain 2 DVVMTQTPLSLPVSLGDQASISCRSSQSLVHSNGNTYLRWYLQKPGQSPKVLIYKVSNRFSGVPDRFSGSGSGTDFTLKISRVEAEDLGVYFCSQSTHVPWTFGGGTKLEIK [chain 1 Y102K Y107R], for which the Kd in the data set with fluorescein came out at 0.923 µM. The yeast surface expression in data set [1] is 0.991.
